Reference: article PMC11446282

test system: PP2A-B55α; assay: Single alanine mutational scan, YFP-tagged interactors immunoprecipitated from HeLa cells, Western blot; type: binding, human; conditions: single alanine mutant of YFP-tagged ZDS1

| Molecule | Experimental % binding [%] |
| --- | --- |
| ZDS1 N870: ZDS1, N870 to alanine (protein, UniProt P50111 1-915, looked up, variant N870A) Protein ZDS1: MSNRDNESMLRTTSSDKAIASQRDKRKSEVLIAAQSLDNEIRSVKNLKRLSIGSMDLLIDPELDIKFGGESSGRRSWSGTTSSSASMPSDTTTVNNTRYSDPTPLENLHGRGNSGIESSNKTKQGNYLGIKKGVHSPSRKLNANVLKKNLLWVPANQHPNVKPDNFLELVQDTLQNIQLSDNGEDNDGNSNENNDIEDNGEDKESQSYENKENNTINLNRGLSRHGNASLIRRPSTLRRSYTEFDDNEDDDNKGDSASETVNKVEERISKIKERPVSLRDITEELTKISNSAGLTDNDAITLARTLSMAGSYSDKKDQPQPEGHYDEGDIGFSTSQANTLDDGEFASNMPINNTMTWPERSSLRRSRFNTYRIRSQEQEKEVEQSVDEMKNDDEERLKLTKNTIKVEIDPHKSPFRQQDEDSENMSSPGSIGDFQDIYNHYRQSSGEWEQEMGIEKEAEEVPVKVRNDTVEQDLELREGTTDMVKPSATDDNKETKRHRRRNGWTWLNNKMSREDDNEENQGDDENEENVDSQRMELDNSKKHYISLFNGGEKTEVSNKEEMNNSSTSTATSQTRQKIEKTFANLFRRKPHHKHDASSSPSSSPSSSPSIPNNDAVHVRVRKSKKLGNKSGREPVEPIVLRNRPRPHRHHHSRHGSQKISVKTLKDSQPQQQIPLQPQLEGAIEIEKKEESDSESLPQLQPAVSVSSTKSNSRDREEEEAKKKNKKRSNTTEISNQQHSKHVQKENTDEQKAQLQAPAQEQVQTSVPVQASAPVQNSAPVQTSAPVEASAQTQAPAAPPLKHTSILPPRKLTFADVKKPDKPNSPVQFTDSAFGFPLPLLTVSTVIMFDHRLPINVERAIYRLSHLKLSASKRGLREQVLLSNFMYAYLNLVNHTLYMEQVAHDKEQQQQQQQQP | 49 |
| ZDS1 S871: ZDS1, S871 to alanine (protein, UniProt P50111 1-915, looked up, variant S871A) Protein ZDS1: MSNRDNESMLRTTSSDKAIASQRDKRKSEVLIAAQSLDNEIRSVKNLKRLSIGSMDLLIDPELDIKFGGESSGRRSWSGTTSSSASMPSDTTTVNNTRYSDPTPLENLHGRGNSGIESSNKTKQGNYLGIKKGVHSPSRKLNANVLKKNLLWVPANQHPNVKPDNFLELVQDTLQNIQLSDNGEDNDGNSNENNDIEDNGEDKESQSYENKENNTINLNRGLSRHGNASLIRRPSTLRRSYTEFDDNEDDDNKGDSASETVNKVEERISKIKERPVSLRDITEELTKISNSAGLTDNDAITLARTLSMAGSYSDKKDQPQPEGHYDEGDIGFSTSQANTLDDGEFASNMPINNTMTWPERSSLRRSRFNTYRIRSQEQEKEVEQSVDEMKNDDEERLKLTKNTIKVEIDPHKSPFRQQDEDSENMSSPGSIGDFQDIYNHYRQSSGEWEQEMGIEKEAEEVPVKVRNDTVEQDLELREGTTDMVKPSATDDNKETKRHRRRNGWTWLNNKMSREDDNEENQGDDENEENVDSQRMELDNSKKHYISLFNGGEKTEVSNKEEMNNSSTSTATSQTRQKIEKTFANLFRRKPHHKHDASSSPSSSPSSSPSIPNNDAVHVRVRKSKKLGNKSGREPVEPIVLRNRPRPHRHHHSRHGSQKISVKTLKDSQPQQQIPLQPQLEGAIEIEKKEESDSESLPQLQPAVSVSSTKSNSRDREEEEAKKKNKKRSNTTEISNQQHSKHVQKENTDEQKAQLQAPAQEQVQTSVPVQASAPVQNSAPVQTSAPVEASAQTQAPAAPPLKHTSILPPRKLTFADVKKPDKPNSPVQFTDSAFGFPLPLLTVSTVIMFDHRLPINVERAIYRLSHLKLSNAKRGLREQVLLSNFMYAYLNLVNHTLYMEQVAHDKEQQQQQQQQP | 102 |
| ZDS1 K872: ZDS1, K872 to alanine (protein, UniProt P50111 1-915, looked up, variant K872A) Protein ZDS1: MSNRDNESMLRTTSSDKAIASQRDKRKSEVLIAAQSLDNEIRSVKNLKRLSIGSMDLLIDPELDIKFGGESSGRRSWSGTTSSSASMPSDTTTVNNTRYSDPTPLENLHGRGNSGIESSNKTKQGNYLGIKKGVHSPSRKLNANVLKKNLLWVPANQHPNVKPDNFLELVQDTLQNIQLSDNGEDNDGNSNENNDIEDNGEDKESQSYENKENNTINLNRGLSRHGNASLIRRPSTLRRSYTEFDDNEDDDNKGDSASETVNKVEERISKIKERPVSLRDITEELTKISNSAGLTDNDAITLARTLSMAGSYSDKKDQPQPEGHYDEGDIGFSTSQANTLDDGEFASNMPINNTMTWPERSSLRRSRFNTYRIRSQEQEKEVEQSVDEMKNDDEERLKLTKNTIKVEIDPHKSPFRQQDEDSENMSSPGSIGDFQDIYNHYRQSSGEWEQEMGIEKEAEEVPVKVRNDTVEQDLELREGTTDMVKPSATDDNKETKRHRRRNGWTWLNNKMSREDDNEENQGDDENEENVDSQRMELDNSKKHYISLFNGGEKTEVSNKEEMNNSSTSTATSQTRQKIEKTFANLFRRKPHHKHDASSSPSSSPSSSPSIPNNDAVHVRVRKSKKLGNKSGREPVEPIVLRNRPRPHRHHHSRHGSQKISVKTLKDSQPQQQIPLQPQLEGAIEIEKKEESDSESLPQLQPAVSVSSTKSNSRDREEEEAKKKNKKRSNTTEISNQQHSKHVQKENTDEQKAQLQAPAQEQVQTSVPVQASAPVQNSAPVQTSAPVEASAQTQAPAAPPLKHTSILPPRKLTFADVKKPDKPNSPVQFTDSAFGFPLPLLTVSTVIMFDHRLPINVERAIYRLSHLKLSNSARGLREQVLLSNFMYAYLNLVNHTLYMEQVAHDKEQQQQQQQQP | 23 |
| ZDS1 R873: ZDS1, R873 to alanine (protein, UniProt P50111 1-915, looked up, variant R873A) Protein ZDS1: MSNRDNESMLRTTSSDKAIASQRDKRKSEVLIAAQSLDNEIRSVKNLKRLSIGSMDLLIDPELDIKFGGESSGRRSWSGTTSSSASMPSDTTTVNNTRYSDPTPLENLHGRGNSGIESSNKTKQGNYLGIKKGVHSPSRKLNANVLKKNLLWVPANQHPNVKPDNFLELVQDTLQNIQLSDNGEDNDGNSNENNDIEDNGEDKESQSYENKENNTINLNRGLSRHGNASLIRRPSTLRRSYTEFDDNEDDDNKGDSASETVNKVEERISKIKERPVSLRDITEELTKISNSAGLTDNDAITLARTLSMAGSYSDKKDQPQPEGHYDEGDIGFSTSQANTLDDGEFASNMPINNTMTWPERSSLRRSRFNTYRIRSQEQEKEVEQSVDEMKNDDEERLKLTKNTIKVEIDPHKSPFRQQDEDSENMSSPGSIGDFQDIYNHYRQSSGEWEQEMGIEKEAEEVPVKVRNDTVEQDLELREGTTDMVKPSATDDNKETKRHRRRNGWTWLNNKMSREDDNEENQGDDENEENVDSQRMELDNSKKHYISLFNGGEKTEVSNKEEMNNSSTSTATSQTRQKIEKTFANLFRRKPHHKHDASSSPSSSPSSSPSIPNNDAVHVRVRKSKKLGNKSGREPVEPIVLRNRPRPHRHHHSRHGSQKISVKTLKDSQPQQQIPLQPQLEGAIEIEKKEESDSESLPQLQPAVSVSSTKSNSRDREEEEAKKKNKKRSNTTEISNQQHSKHVQKENTDEQKAQLQAPAQEQVQTSVPVQASAPVQNSAPVQTSAPVEASAQTQAPAAPPLKHTSILPPRKLTFADVKKPDKPNSPVQFTDSAFGFPLPLLTVSTVIMFDHRLPINVERAIYRLSHLKLSNSKAGLREQVLLSNFMYAYLNLVNHTLYMEQVAHDKEQQQQQQQQP | 15 |
| ZDS1 G874: ZDS1, G874 to alanine (protein, UniProt P50111 1-915, looked up, variant G874A) Protein ZDS1: MSNRDNESMLRTTSSDKAIASQRDKRKSEVLIAAQSLDNEIRSVKNLKRLSIGSMDLLIDPELDIKFGGESSGRRSWSGTTSSSASMPSDTTTVNNTRYSDPTPLENLHGRGNSGIESSNKTKQGNYLGIKKGVHSPSRKLNANVLKKNLLWVPANQHPNVKPDNFLELVQDTLQNIQLSDNGEDNDGNSNENNDIEDNGEDKESQSYENKENNTINLNRGLSRHGNASLIRRPSTLRRSYTEFDDNEDDDNKGDSASETVNKVEERISKIKERPVSLRDITEELTKISNSAGLTDNDAITLARTLSMAGSYSDKKDQPQPEGHYDEGDIGFSTSQANTLDDGEFASNMPINNTMTWPERSSLRRSRFNTYRIRSQEQEKEVEQSVDEMKNDDEERLKLTKNTIKVEIDPHKSPFRQQDEDSENMSSPGSIGDFQDIYNHYRQSSGEWEQEMGIEKEAEEVPVKVRNDTVEQDLELREGTTDMVKPSATDDNKETKRHRRRNGWTWLNNKMSREDDNEENQGDDENEENVDSQRMELDNSKKHYISLFNGGEKTEVSNKEEMNNSSTSTATSQTRQKIEKTFANLFRRKPHHKHDASSSPSSSPSSSPSIPNNDAVHVRVRKSKKLGNKSGREPVEPIVLRNRPRPHRHHHSRHGSQKISVKTLKDSQPQQQIPLQPQLEGAIEIEKKEESDSESLPQLQPAVSVSSTKSNSRDREEEEAKKKNKKRSNTTEISNQQHSKHVQKENTDEQKAQLQAPAQEQVQTSVPVQASAPVQNSAPVQTSAPVEASAQTQAPAAPPLKHTSILPPRKLTFADVKKPDKPNSPVQFTDSAFGFPLPLLTVSTVIMFDHRLPINVERAIYRLSHLKLSNSKRALREQVLLSNFMYAYLNLVNHTLYMEQVAHDKEQQQQQQQQP | 80 |
| ZDS1 L875: ZDS1, L875 to alanine (protein, UniProt P50111 1-915, looked up, variant L875A) Protein ZDS1: MSNRDNESMLRTTSSDKAIASQRDKRKSEVLIAAQSLDNEIRSVKNLKRLSIGSMDLLIDPELDIKFGGESSGRRSWSGTTSSSASMPSDTTTVNNTRYSDPTPLENLHGRGNSGIESSNKTKQGNYLGIKKGVHSPSRKLNANVLKKNLLWVPANQHPNVKPDNFLELVQDTLQNIQLSDNGEDNDGNSNENNDIEDNGEDKESQSYENKENNTINLNRGLSRHGNASLIRRPSTLRRSYTEFDDNEDDDNKGDSASETVNKVEERISKIKERPVSLRDITEELTKISNSAGLTDNDAITLARTLSMAGSYSDKKDQPQPEGHYDEGDIGFSTSQANTLDDGEFASNMPINNTMTWPERSSLRRSRFNTYRIRSQEQEKEVEQSVDEMKNDDEERLKLTKNTIKVEIDPHKSPFRQQDEDSENMSSPGSIGDFQDIYNHYRQSSGEWEQEMGIEKEAEEVPVKVRNDTVEQDLELREGTTDMVKPSATDDNKETKRHRRRNGWTWLNNKMSREDDNEENQGDDENEENVDSQRMELDNSKKHYISLFNGGEKTEVSNKEEMNNSSTSTATSQTRQKIEKTFANLFRRKPHHKHDASSSPSSSPSSSPSIPNNDAVHVRVRKSKKLGNKSGREPVEPIVLRNRPRPHRHHHSRHGSQKISVKTLKDSQPQQQIPLQPQLEGAIEIEKKEESDSESLPQLQPAVSVSSTKSNSRDREEEEAKKKNKKRSNTTEISNQQHSKHVQKENTDEQKAQLQAPAQEQVQTSVPVQASAPVQNSAPVQTSAPVEASAQTQAPAAPPLKHTSILPPRKLTFADVKKPDKPNSPVQFTDSAFGFPLPLLTVSTVIMFDHRLPINVERAIYRLSHLKLSNSKRGAREQVLLSNFMYAYLNLVNHTLYMEQVAHDKEQQQQQQQQP | 0 |
